How the values were obtained:
RPA (yeast) [1] = biological target: T1, RPA (yeast) (Saccharomyces cerevisiae, UniProt P22336;P26754;P26755 1-621;1-273;1-122); assay: competition (smFRET strand transfer); from dT40-RPA, 100 mM NaCl; 8.6±0.3e4 M-1 s-1; 10 mM Tris-HCl pH 7.5, 100 or 300 mM NaCl, 10% glycerol, 10 mM Trolox, 0.5% glucose, glucose oxidase/catalase, ~23 C; conditions: protein: recombinant; copies: 1;1;1
SSB [2] = biological target: T2, SSB (UniProt P0AGE0 2-178); assay: competition (smFRET strand transfer); from dT40-SSB, 100 mM NaCl; 9.8±0.2e4 M-1 s-1; 10 mM Tris-HCl pH 7.5, 100 or 300 mM NaCl, 10% glycerol, 10 mM Trolox, 0.5% glucose, glucose oxidase/catalase, ~23 C; conditions: protein: recombinant; chain copies: 4
T2 sequence (P0AGE0 2-178): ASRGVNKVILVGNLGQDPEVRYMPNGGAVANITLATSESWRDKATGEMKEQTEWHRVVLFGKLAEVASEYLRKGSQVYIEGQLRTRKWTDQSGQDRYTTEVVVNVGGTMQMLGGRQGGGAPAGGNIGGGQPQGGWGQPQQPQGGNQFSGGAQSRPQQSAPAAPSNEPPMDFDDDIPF

hRPA = hRPA (Homo sapiens, UniProt P27694;P15927;P35244 1-616;1-270;1-121); assay: competition (smFRET strand transfer); from dT40-hRPA, 100 mM NaCl; 8.3±0.6e4 M-1 s-1; 10 mM Tris-HCl pH 7.5, 100 or 300 mM NaCl, 10% glycerol, 10 mM Trolox, 0.5% glucose, glucose oxidase/catalase, ~23 C; conditions: protein: recombinant; copies: 1;1;1
Sequence of hRPA (P27694 whole entry, chain 1 of 3): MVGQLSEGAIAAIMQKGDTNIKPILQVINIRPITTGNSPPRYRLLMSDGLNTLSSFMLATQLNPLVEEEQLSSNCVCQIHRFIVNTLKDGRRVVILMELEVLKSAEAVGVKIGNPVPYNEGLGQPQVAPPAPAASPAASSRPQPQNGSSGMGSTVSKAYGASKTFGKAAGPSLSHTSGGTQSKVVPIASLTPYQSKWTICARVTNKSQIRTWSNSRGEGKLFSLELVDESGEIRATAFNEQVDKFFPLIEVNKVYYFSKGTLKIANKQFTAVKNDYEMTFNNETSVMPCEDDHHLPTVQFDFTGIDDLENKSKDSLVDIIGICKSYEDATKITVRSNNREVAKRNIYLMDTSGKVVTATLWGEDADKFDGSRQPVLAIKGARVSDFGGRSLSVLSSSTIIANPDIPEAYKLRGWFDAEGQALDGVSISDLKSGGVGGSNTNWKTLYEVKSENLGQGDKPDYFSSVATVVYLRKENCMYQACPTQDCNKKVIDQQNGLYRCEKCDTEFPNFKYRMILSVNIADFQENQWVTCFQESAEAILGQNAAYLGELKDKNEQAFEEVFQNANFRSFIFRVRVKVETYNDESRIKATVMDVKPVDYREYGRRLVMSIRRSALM
Sequence of hRPA (P15927 whole entry, chain 2 of 3): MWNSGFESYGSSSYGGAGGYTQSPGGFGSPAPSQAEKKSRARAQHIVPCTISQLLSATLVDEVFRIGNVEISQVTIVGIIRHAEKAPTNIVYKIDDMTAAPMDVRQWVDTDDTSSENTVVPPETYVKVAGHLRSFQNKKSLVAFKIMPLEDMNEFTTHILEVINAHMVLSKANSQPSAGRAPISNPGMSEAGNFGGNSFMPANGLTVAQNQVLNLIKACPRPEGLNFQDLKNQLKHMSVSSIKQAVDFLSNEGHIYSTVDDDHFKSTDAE
Sequence of hRPA (P35244 whole entry, chain 3 of 3): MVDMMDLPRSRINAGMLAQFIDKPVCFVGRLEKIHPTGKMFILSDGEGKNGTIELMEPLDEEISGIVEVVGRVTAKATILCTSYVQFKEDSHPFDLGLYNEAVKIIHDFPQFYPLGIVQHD

RPA (yeast) [3] = biological target: T1, RPA (yeast); assay: single-molecule FRET; 3 nM, ternary intermediate with dT40-RPA, dwell ~0.27 s, 100 mM NaCl; 10 mM Tris-HCl pH 7.5, 100 or 300 mM NaCl, 10% glycerol, 10 mM Trolox, 0.5% glucose, glucose oxidase/catalase, ~23 C; conditions: protein: recombinant; copies: 1;1;1; label: 3' Cy3
SSB [4] = biological target: T2, SSB; assay: single-molecule FRET; 3 nM, ternary intermediate with dT40-SSB, dwell ~0.31 s, 100 mM NaCl; 10 mM Tris-HCl pH 7.5, 100 or 300 mM NaCl, 10% glycerol, 10 mM Trolox, 0.5% glucose, glucose oxidase/catalase, ~23 C; conditions: protein: recombinant; chain copies: 4; label: 3' Cy3
RPA (yeast) [5] = biological target: T1, RPA (yeast); assay: competition (smFRET strand transfer); from U50-RPA, 100 mM NaCl; 4.3±0.4e5 M-1 s-1; 10 mM Tris-HCl pH 7.5, 100 or 300 mM NaCl, 10% glycerol, 10 mM Trolox, 0.5% glucose, glucose oxidase/catalase, ~23 C; conditions: protein: recombinant; copies: 1;1;1
SSB [6] = biological target: T2, SSB; assay: competition (smFRET strand transfer); from U50-SSB, 100 mM NaCl; 2.1±0.2e5 M-1 s-1; 10 mM Tris-HCl pH 7.5, 100 or 300 mM NaCl, 10% glycerol, 10 mM Trolox, 0.5% glucose, glucose oxidase/catalase, ~23 C; conditions: protein: recombinant; chain copies: 4
RPA (yeast) [7] = biological target: T1, RPA (yeast); assay: competition (smFRET strand transfer); 100 nM competitor from dT40-RPA; rate jumps between dT20 and dT30; 10 mM Tris-HCl pH 7.5, 100 or 300 mM NaCl, 10% glycerol, 10 mM Trolox, 0.5% glucose, glucose oxidase/catalase, ~23 C; conditions: protein: recombinant; copies: 1;1;1
RPA (yeast) [8] = biological target: T1, RPA (yeast); assay: competition (smFRET strand transfer); from dT70-RPA, 100 mM NaCl; 9.1±0.4e4 M-1 s-1; 10 mM Tris-HCl pH 7.5, 100 or 300 mM NaCl, 10% glycerol, 10 mM Trolox, 0.5% glucose, glucose oxidase/catalase, ~23 C; conditions: protein: recombinant; copies: 1;1;1
SSB [9] = biological target: T2, SSB; assay: competition (smFRET strand transfer); from dT70-SSB, 300 mM NaCl; 6.1±0.1e4 M-1 s-1; 10 mM Tris-HCl pH 7.5, 100 or 300 mM NaCl, 10% glycerol, 10 mM Trolox, 0.5% glucose, glucose oxidase/catalase, ~23 C; conditions: protein: recombinant; chain copies: 4

T1 sequence (P22336 whole entry, chain 1 of 3): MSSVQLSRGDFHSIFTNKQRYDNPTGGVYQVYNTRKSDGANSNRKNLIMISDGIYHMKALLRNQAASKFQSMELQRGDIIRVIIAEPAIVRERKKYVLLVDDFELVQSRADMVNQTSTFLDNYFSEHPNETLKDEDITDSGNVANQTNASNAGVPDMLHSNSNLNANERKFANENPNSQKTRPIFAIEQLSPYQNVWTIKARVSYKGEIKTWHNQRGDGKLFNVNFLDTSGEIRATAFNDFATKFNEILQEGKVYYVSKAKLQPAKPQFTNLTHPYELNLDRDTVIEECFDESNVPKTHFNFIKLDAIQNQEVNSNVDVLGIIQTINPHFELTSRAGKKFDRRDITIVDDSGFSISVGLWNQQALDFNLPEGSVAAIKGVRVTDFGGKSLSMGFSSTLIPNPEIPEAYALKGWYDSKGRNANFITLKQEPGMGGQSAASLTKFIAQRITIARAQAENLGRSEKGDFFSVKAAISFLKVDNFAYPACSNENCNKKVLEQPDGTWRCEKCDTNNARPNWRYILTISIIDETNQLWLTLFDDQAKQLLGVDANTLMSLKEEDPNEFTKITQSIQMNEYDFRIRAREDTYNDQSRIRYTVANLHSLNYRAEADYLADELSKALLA
T1 sequence (P26754 whole entry, chain 2 of 3): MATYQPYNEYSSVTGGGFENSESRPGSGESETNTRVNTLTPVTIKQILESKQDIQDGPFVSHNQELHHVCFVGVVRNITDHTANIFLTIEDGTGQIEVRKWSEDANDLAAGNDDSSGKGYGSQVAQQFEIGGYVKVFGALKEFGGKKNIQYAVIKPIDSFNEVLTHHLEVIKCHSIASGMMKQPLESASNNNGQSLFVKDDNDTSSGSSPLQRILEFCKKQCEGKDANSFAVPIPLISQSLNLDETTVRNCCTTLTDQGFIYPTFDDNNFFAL
T1 sequence (P26755 whole entry, chain 3 of 3): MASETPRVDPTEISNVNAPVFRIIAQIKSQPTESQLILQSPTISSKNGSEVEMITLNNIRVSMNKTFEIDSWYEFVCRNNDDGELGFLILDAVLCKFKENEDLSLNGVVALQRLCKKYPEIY

## TTTTTTTTTTTTTTTTTTTTTTTTTTTTTTTTTTTTTTTT (ssDNA) [dT40]
RPA (yeast) [1]
  binding result: binds
SSB [2]
  binding result: binds
hRPA
  binding result: binds

## TTTTTTTTTTTTTTTTTTTTTTTTTTTTTTTTTTTTTTTT (ssDNA) [dT40-Cy3]
RPA (yeast) [3]
  binding result: binds
SSB [4]
  binding result: binds

## UUUUUUUUUUUUUUUUUUUUUUUUUUUUUUUUUUUUUUUUUUUUUUUUUU (ssRNA) [U50]
RPA (yeast) [5]
  binding result: binds
SSB [6]
  binding result: binds

## TTTTTTTTTTTTTTTTTTTTTTTTTTTTTT (ssDNA) [dT30]
RPA (yeast) [7]
  binding result: binds

B1: dT60 (ssDNA)
DNA: TTTTTTTTTTTTTTTTTTTTTTTTTTTTTTTTTTTTTTTTTTTTTTTTTTTTTTTTTTTT
RPA (yeast) [8]
  binding result: binds
SSB [9]
  binding result: binds

From PMC12214019, “Mechanistic insights into direct DNA and RNA strand transfer and dynamic protein exchange of SSB and RPA”
